In the nanobody polyreactivity screen of Harvey et al. (2022):

Test: yeast display, Sf9 membrane polyspecificity reagent, FACS + sequencing; frameworks hold sequencing errors
Method in brief: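 Synthetic nanobody libraries on Saccharomyces cerevisiae BJ5465 were galactose-induced for 36–48 hours, stained 1 hour at 4 °C with 10% biotinylated, detergent-solubilized Sf9 membrane reagent and enriched on streptavidin microbeads. FACS then separated cells into low and high (top ~1%) gates by anti-HA (expression) and streptavidin (reagent binding) fluorescence. Genes were colony-PCR amplified, MiSeq 2 × 250 sequenced and CDR-length filtered. A clone's polyreactivity label is that of its gate of origin.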

Sequence | polyreactivity (PSR sort gate)
QVQLVESGGGLDQAGGSLRLICAASGFIFEYYAMGWYRQAPGKERELVASITSGGTTYYADSVKGRFTISRDNAKNTVYLQMNSLKPEDTAVDYCAAAWRIWWYHRGEFDYWGQGTQVTVSS | high polyreactivity
QVQLVESGGGLDQAGGSLRLICAASGRIFKWYAMGWYRQAPGKERELVATITWSGGSTYYADSVKGRFTISRDNAQNTVYLQMNSLKAEDTAVYYCNADTWLALPCFDYWGQGTQVTVSS | high polyreactivity
QVQLVESGGGLDQAGGSLRLRCAPSGRIFSYVMGWYRQAPGKERELVAAISGGVRTYYADSVKGRFTISRDNAKNTVYLQMNSLKPEDTAVYYCNADWYRKRNYWGQGTQVTVSS | high polyreactivity
QVQLVESGGGLDQAGGSLRLSCAAAGRTFPYYAMGWYRQAPGKERELVATISTSGTSTYYADSVKGRFTISRDKAKNTVYLQMNSLKPEDTAVYYCNAVHRNWRQKFDYWGLGTQVTVSS | high polyreactivity
QVQLVESGGGLDQAGGSLRLSCAASASTFRRYAMGWYRQAPGKERELVAAISRSGGNTYYADSVKGRFTISRDNAKNTVYLQMNSLKPEDTAVYYCAASKLYGSPEHGYWGQGTQVTVSS | high polyreactivity
QVQLVESGGGLDQAGGSLRLSCAASGFTFASYAMGWYRQAPGKERELLAAITRSGGSTYYADSVKGRFTISRDNAKNTVYLHLTSLKPEDTAVYYCATDDEQHYYLLEYYYWGQGTQVTVSS | low polyreactivity
QVQLVESGGGLDQAGGSLRLSCAASGFTFTGYAMGWYRQAPGKERELVAAITRGGGSTYYADSVKGRFTISRDNAKNTVYLQMNSLKPEDTAVYYSAAQRSRLIRISSPYYGHDYWGQGTQVTVSS | low polyreactivity
QVQLVESGGGLDQAGGSLRLSCAASGFTLHSYALGWYRQAPGKERELVAAITTGGSTYYADSVKGRFTISRDNAKNTVYLQMNSLKPEDTAVYYCAAEDPGPYGGYVYWGQGTQVTVSS | low polyreactivity
QVQLVESGGGLDQAGGSLRLSCAASGIIFEQYAMGWYRQAPGKERELVAAISSGGTTYADSVKGRFTISRDNAKNTVYLQMNSLKPEYTAVYYCNDDLSWHGPDWSDYEYDYWGQGTQVTVSS | low polyreactivity
QVQLVESGGGLDQAGGSLRLSCAASGIILYGYTMGGYRQAPGKERELVAAINRGGSTNYADSVKGRFTISRDNAKNTVYLQMNSLKPEDTAVYYCAVDTVVASTYDYWGQGTQVTVSS | low polyreactivity
QVQLVESGGGLDQAGGSLRLSCAASGIILYRNGMGCYRQAPGKETELVAVISRRGGTYYADSVKGRFTISRDNAKNTVYLQVNSLKPEDTAVYYCAAYLSQKGNFRGGGDYWGQGTQVTVSS | high polyreactivity
QVQLVESGGGLDQAGGSLRLSCAASGITFQGYAMGWYRQAPGKERELVAAINDSGSSTYYADSVKGRFTISRDNAKNTVYLQMNSLKPEDTAVYYCAAYLWFWGQGTQVTVSS | low polyreactivity
QVQLVESGGGLDQAGGSLRLSCAASGITFTVNARGWYREAPGKERELVAGITWSGGSTYYADSVKGRFTISRDNAKNTVYLQMNSLKPEDTAVYYCNADSDGFWSIYDYWGQGTQVTVSS | low polyreactivity
QVQLVESGGGLDQAGGSLRLSCAASGLTFKWYAMGWYRQAPGKERELVAAIRTSAGSTYYADSVKGRFTISRDNAKNTVYLQMNSLKPEDTAVYYCNAVGYVFRYVYQYDYWGQCTQVTVSS | low polyreactivity
QVQLVESGGGLDQAGGSLRLSCAASGLTFYKYAMGWYRQAPRKERELVASISRTGGSTYYADSVKGRFTISRDNANNTVYLQMNSLKPEDTAFYYCAARRGYYYGRVGYWGQGTQVTVSS | high polyreactivity
QVQLVESGGGLDQAGGSLRLSCAASGNTFIRNALGWYRQAPGIERELVAAITSGTSTYYADSVKGRFTISRDNAQKTVYLQMNSLKPEDTALYYCAKRRNYWHYYWGQGTQVTVSS | high polyreactivity
QVQLVESGGGLDQAGGSLRLSCAASGRIFTANVMGWYRQAPGKERELVAAIDYSGGSTYYADSVKGRFTISRDNAKNTVYLQMNSLKPEDTAVYSCNRDDYADYYHLEYDYWGQGTQVTVSS | low polyreactivity
QVQLVESGGGLDQAGGSLRLSCAASGRIFTTYAMGWYRQAPGKERELVAAISRSGGSTYYADSVKGRFTISRDNAKNTVYLQMNSLKPEDTAVYYCAAVPTSNSFRSSFYYWGQGTQVTVSS | high polyreactivity
QVQLVESGGGLDQAGGSLRLSCAASGRIFTYNTMGWYRQAPGKEREFVASITYSGSSTYYADSVKGRFTISRDNAKNTVYLEMNSLKPEVTAVYYCAHRYGYSDGDYWGQGTQVTVSS | low polyreactivity
QVQLVESGGGLDQAGGSLRLSCAASGRIFYYYALGWYRQAPGKERELVAAITWIGTSTYYADSVKGRFTISRDNGKNTVYLQMNSLKPEDTAVYYCAAEGWVGAWWYVLDVRYDYWGQGTQVTVSS | low polyreactivity
QVQLVESGGGLDQAGGSLRLSCAASGRIGYYAMGWYRQAPGKETELVAAISYGGGSTYYADSVKGRFTISRDNAKNTVYLQLNSLKPEDTAVYYCAARWGKSWRGYGYWGQGTLVTVSS | high polyreactivity
QVQLVESGGGLDQAGGSLRLSCAASGRTFEYNAMGLYRQAPGKERELVATIRYSGTSTYADSVKGRFTISRDNAKNTAYLQMNSLKPEDTAVYYCNKLGYYYDRRYDYWGQGTQVTVSS | high polyreactivity

Sequence | polyreactivity (PSR sort gate)
QVQLVESGGGLDQAGGSLRLSCAASGRTFGKYAMGWYRQAPGKERELVAAITGGGGTKYADSVKGRFTISRDNAKNTFYLQMNSLKPEDTAVYYCAAASGSRRHGFWGQGTQVTVSS | high polyreactivity
QVQLVESGGGLDQAGGSLRLSCAASGRTFQGYAMGWYRQAPGKERELVAAISRSGGRTYYADSVKGRFTISRDNAKNTVYLQMNSLKPEATAVYFCATDAFRDYGYWGQGTQVTLSS | high polyreactivity
QVQLVESGGGLDQAGGSLRLSCAASGRTFSYYAMGWYRQAPVKERELVAGISWRGTSTYADSVKGRFTISRDNAKNTFYLQMNRLKPEHTAVYYCNAEVTGHYSYHKFDYWGQGTQVTVSS | low polyreactivity
QVQLVESGGGLDQAGGSLRLSCAASGRTFTHNVMGWYRQAPGKEMELVAGISSTGGSTYYADSVKVRFTISRDNAKNTVYLQMNSLKPEDTAVYYCAKQRRSFYDFFHYDYWGLGTQVTVSS | low polyreactivity
QVQLVESGGGLDQAGGSLRLSCAASGRTFTVNTMGWYIQAPGKERELVAAIPNGGSTNYADSVKGRFTISHDNAKNTVYLQMNSLKPEDTAVYYCAAYYYYTLYYRYDYWGQGTQVTVSS | low polyreactivity
QVQLVESGGGLDQAGGSLRLSCAASGRTFVVYAMGWYRQAPGKERELVAAITSSGNTYYADSVKGRFTISRDNAKNTVYLQMNSLKPEDTAVYYCAAYSLYGYDYWGQGTQVTVSS | low polyreactivity
QVQLVESGGGLDQAGGSLRLSCAASGRTFYTYVMGWYRQAPGKEREFLAAITYSGGSTYYADSVKGRFTISRDNAKNTVYLQMNSLKTEDSAVYYCNAEWTYSEWYGQYLEFDYWGQGTQVTVSS | high polyreactivity
QVQLVESGGGLDQAGGSLRLSCAASGSIFDTYAMGWYIQAPGKSWELVAAISWGGGSTYYADSVKGRFTISRDNAKNTVYLQMNSLKPEDTAVYYCATEYFFLGGWYEYWGQGTQVTVSS | high polyreactivity
QVQLVESGGGLDQAGGSLRLSCAASGSIFGFYAMGWSRQAPGKERELVAAITWRGGSTYYADSVKGRFTISRDNAKNTVYLQMTILKPEDTAVYYCAATSARRQTYNFAKYDYWGQGTQVTLSS | low polyreactivity
QVQLVESGGGLDQAGGSLRLSCAASGSIFGYNGMGWYRQAPGKESEFVAAISYSGSRTYYADSVKGRFTISRDNAKNTVYLQMNSLKPEDTAVYYCATDDSHYLYRTVSAWEYDYWGQGTQVTVSS | low polyreactivity
QVQLVESGGGLDQAGGSLRLSCAASGSIFLRYAMGWYRQAPGKERELVAAITTGGGSTYYADSVKGRFTISRDNAKNTVYLQMNSLKPEDTAVYYCAKRAQYHWRGRDDYSYYYWGQGTQVTVSS | low polyreactivity
QVQLVESGGGLDQAGGSLRLSCAASGSIFMPNAMGWYRQAPGKERELVAAISASTSSTYYADSVKGRFTISRDNAKNTVYLEMNSLKPEDTGVYYCAAYYVFFYLEDVYYEYDYWGQGTQVTVSS | high polyreactivity
QVQLVESGGGLDQAGGSLRLSCAASGSIFPLYAKGWYRQAPGKERELVADITVSGGSTYYADSVKGRFTISRDYAKNTVYLQMNSLKPEDTAVYYCAKDNGPWFAYDYWGQGTHVTVSS | low polyreactivity
QVQLVESGGGLDQAGGSLRLSCAASGSIFRSYAMGWYRQAPGKERELVATIDRSGGSTYYADSVKGRFTISRDNAKNTVYLQMNSLKPEDTAVYYCNKTPHFPRPGFNYWGQGTQVTVSS | low polyreactivity
QVQLVESGGGLDQAGGSLRLSCAASGSIFVLYAMGWYRQAPGKERELVAAITRSGGDTYYADSVKGRFTISRDNAKNTVYLQMNSLKPEDTAVYYCAAERSWYPWVATGYYWGQGTQVTVSS | low polyreactivity
QVQLVESGGGLDQAGGSLRLSCAASGSIFVRNAMGWYRQAPGKERELVASISRRGGSTYYADSVKGRFTISRDNAKNTVYLQMNSLKPEDTAVYYCAAVVRRAPEFDYWGQGTQVTVSS | high polyreactivity
QVQLVESGGGLDQAGGSLRLSCAASGSNLVSNDMGWYRQAPGKERELVAAMSWSGGSTYYADSVKGRFTISRDNAKNTVYLHMNSLKPEDTAVYYCAAGFGFLFARQELEFDYWGQGTQVTVSS | low polyreactivity
QVQLVESGGGLDQAGGSLRLSCAASGSTFDGYAMGWYRRAPGKERELVAAITSSDGSTYYADSVKGRFTISRDNAKHTVYLQMYSLKPEDTAVYYCAAAPDWKDSLPPDMDYWGQGTQVSVSS | low polyreactivity
QVQLVESGGGLDQAGGSLRLSCAASGSTFSRYAMGWYRQPPGKERELVAAISWRGGSTYYADSVKGRFTISRDNAKNTVYLQMNSLKPEDTAVYYCNKAGFWFVVYKRQEYWGQGTQVTVSS | high polyreactivity
QVQLVESGGGLDQAGGSLRLSCAASGSTFVYYAMGWYRQAPGKERELVAAITASGGGTYYADSVKGSFTISRDNAKNTVYLQMNSLKPEDTAVYYCAANDYWYSRGDNQFYYRGQGTQVTVSS | low polyreactivity
QVQLVESGGGLDQAGGSLRLSCAASGSTFYFYAMGWYRQAPGKEMELVAVISSGGRTYYADSVKGRFTISRDNAKNTVYLQMNSLKPEDTAVYYCAASWPSSLTYYYWGQGTQVTVSS | low polyreactivity
